Test results from paper PMC7308506 (2020).

How the values were obtained:
activated factor XII = biological target: T1, activated factor XII; assay: SPR
T1 chain 1: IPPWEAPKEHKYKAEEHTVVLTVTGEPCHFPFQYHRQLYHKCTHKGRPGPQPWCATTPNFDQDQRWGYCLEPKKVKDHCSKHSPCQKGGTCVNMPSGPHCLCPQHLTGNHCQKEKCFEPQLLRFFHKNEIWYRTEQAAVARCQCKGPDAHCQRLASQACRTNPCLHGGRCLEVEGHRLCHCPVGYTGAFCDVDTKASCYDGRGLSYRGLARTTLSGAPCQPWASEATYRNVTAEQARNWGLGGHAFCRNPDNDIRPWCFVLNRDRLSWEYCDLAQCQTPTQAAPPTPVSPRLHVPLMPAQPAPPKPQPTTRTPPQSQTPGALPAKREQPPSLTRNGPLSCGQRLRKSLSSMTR
T1 chain 2: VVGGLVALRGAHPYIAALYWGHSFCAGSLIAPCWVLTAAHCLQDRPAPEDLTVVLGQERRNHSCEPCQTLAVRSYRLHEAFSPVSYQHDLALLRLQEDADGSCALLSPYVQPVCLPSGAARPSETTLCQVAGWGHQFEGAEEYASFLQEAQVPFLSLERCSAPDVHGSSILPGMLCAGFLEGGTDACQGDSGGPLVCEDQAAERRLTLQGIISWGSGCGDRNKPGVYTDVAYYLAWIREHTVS

kallikrein = assay: SPR

B1: LCTX-F2 (peptide)
chain: GAKACTPRLHDCSHDRHSCCRGELFKDVCYCFYPEGEDKTEVCSCQQPKSHKYIEKVVDKTKTLVG
Binder B1 has a Kd (activated factor XII) of 7.2 nM and a Kd (kallikrein) of 4.6 nM.
